Test [1] has as its target T1, gastrin-releasing peptide receptor (GRPR) (human, UniProt P30550 1-384).
T1 construct: whole, on cells; also called GRP receptor
The test can be described thus: displacement of ^125I-[Tyr^4]BBN from 10^5 PC-3 cells.
Procedure: (§1) The best-fit 50% inhibitory concentration (IC₅₀) values were calculated by fitting the data with nonlinear regression using Graph-Pad Prism (GraphPad Software, Inc.). Experiments were performed with triplicate samples.

Test [2] has as its target T2, integrin αvβ3 (human, UniProt P06756 31-1048; P05106 27-788).
T2 construct: whole, on cells; Endogenous receptor on U87MG human glioblastoma cells in the IC50 assays; also called integrin alpha v beta 3; human integrin αvβ3
In words: competitive displacement of ^125I-echistatin on U87MG cells.
Procedure: as §1

Test [3] deals with T2, integrin αvβ3. In words: competitive binding with ^125I-c(RGDyK) on U87MG cells.
Procedure: The best-fit 50% inhibitory concentration (IC₅₀) values were calculated by fitting the data with nonlinear regression using GraphPad Prism (GraphPad Software). Experiments were performed twice with triplicate samples.
Test [4] has as its target T1, gastrin-releasing peptide receptor …. In words: displacement of ^125I-[Tyr^4]BBN from PC-3 cells.
Test [5] has the same target. The test can be described thus: competitive binding with 125I-[Tyr4]BBN on PC-3 cells; determined with NOTA-RGD-BBN.
Test [6] has the same target. The test can be described thus: competitive binding with 125I-[Tyr4]BBN on PC-3 cells.
Test [7] concerns the target T2, integrin αvβ3. The test can be described thus: competitive binding with 125I-c(RGDyK) on U87MG cells.
Test [8] concerns the target T1, gastrin-releasing peptide receptor …. In words: displacement of ^125I-[Tyr^4]BBN from PC-3 cells; determined with FB-PEG3-RGD-BBN.

T2 sequence (P06756 31-1048, chain 1 of 2): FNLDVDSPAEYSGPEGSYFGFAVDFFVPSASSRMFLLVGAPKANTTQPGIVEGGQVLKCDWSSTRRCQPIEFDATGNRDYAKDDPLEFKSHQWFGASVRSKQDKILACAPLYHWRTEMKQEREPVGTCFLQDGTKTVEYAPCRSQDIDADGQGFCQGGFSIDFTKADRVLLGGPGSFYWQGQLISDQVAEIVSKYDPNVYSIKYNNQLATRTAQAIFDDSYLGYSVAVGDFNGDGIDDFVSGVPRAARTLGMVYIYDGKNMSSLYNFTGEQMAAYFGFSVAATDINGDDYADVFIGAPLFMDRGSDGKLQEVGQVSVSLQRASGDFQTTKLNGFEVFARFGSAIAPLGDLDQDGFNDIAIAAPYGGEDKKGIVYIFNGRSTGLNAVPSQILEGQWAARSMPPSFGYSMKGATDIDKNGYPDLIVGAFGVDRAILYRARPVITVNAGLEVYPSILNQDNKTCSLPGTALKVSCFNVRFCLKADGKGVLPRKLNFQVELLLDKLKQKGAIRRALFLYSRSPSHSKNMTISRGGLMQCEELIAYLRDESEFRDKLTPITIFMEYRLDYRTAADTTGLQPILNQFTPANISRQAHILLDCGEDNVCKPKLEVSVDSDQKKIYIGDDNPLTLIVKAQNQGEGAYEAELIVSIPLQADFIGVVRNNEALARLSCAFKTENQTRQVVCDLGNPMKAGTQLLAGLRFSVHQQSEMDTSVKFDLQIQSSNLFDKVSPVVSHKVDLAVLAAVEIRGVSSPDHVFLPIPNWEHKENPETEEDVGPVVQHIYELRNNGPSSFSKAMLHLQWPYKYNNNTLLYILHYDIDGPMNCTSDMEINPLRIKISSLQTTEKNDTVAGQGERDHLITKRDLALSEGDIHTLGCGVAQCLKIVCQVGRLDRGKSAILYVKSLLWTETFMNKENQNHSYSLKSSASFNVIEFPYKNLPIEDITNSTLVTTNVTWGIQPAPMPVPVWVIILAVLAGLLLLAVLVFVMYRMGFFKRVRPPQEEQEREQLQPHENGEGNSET
T2 sequence (P05106 27-788, chain 2 of 2): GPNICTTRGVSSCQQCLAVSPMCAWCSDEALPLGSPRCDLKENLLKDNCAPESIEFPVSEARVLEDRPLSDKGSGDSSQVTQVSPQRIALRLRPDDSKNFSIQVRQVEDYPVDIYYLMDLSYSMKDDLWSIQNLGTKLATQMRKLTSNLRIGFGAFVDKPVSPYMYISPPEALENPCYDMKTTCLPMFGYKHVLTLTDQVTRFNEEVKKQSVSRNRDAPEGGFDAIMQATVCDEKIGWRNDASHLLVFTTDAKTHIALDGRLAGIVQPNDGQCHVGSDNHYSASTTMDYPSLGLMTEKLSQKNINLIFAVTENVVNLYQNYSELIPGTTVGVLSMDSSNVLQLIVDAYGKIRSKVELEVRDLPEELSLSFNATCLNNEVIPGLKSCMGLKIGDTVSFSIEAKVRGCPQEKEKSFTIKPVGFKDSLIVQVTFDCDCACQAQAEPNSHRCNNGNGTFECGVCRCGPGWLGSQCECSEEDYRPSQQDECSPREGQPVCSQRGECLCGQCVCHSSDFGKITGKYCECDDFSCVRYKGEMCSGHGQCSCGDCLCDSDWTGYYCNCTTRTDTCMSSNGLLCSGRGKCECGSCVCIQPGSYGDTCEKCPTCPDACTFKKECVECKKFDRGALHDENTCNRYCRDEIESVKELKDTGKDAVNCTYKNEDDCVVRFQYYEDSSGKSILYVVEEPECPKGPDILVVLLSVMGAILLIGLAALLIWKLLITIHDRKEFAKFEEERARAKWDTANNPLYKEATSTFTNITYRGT
T1 sequence (P30550 whole entry): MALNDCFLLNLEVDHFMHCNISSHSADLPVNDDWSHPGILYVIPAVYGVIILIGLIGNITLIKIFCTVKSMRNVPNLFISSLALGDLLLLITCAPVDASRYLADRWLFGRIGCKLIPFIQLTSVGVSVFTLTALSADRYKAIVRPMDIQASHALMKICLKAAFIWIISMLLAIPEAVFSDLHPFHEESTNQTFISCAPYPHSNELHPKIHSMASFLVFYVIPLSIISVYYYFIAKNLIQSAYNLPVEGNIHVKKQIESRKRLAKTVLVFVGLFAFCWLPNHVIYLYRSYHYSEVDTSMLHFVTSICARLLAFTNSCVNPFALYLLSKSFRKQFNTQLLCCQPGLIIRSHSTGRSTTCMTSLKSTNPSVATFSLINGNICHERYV

B1: FB-NH-Glu-BBN(7-14)-c(RGDyK) (FB-BBN-RGD) (peptide)
peptide 1: RGDYK
peptide 2: EQWAVGHLM
modifications: 4-fluorobenzoyl (FB) on the Glu amino group; Aca between Glu and Gln; C-terminal amide (Met-NH2); cyclic (cyclo); D-Tyr at position 4; Lys joined to one carboxylate of the Glu linker
notes: non-radioactive FB form used in the IC50 assays; also called ^18F-FB-BBN-RGD
For orientation: IC50 means the concentration that inhibits the measured activity by half. Low readings indicate greater potency, high ones weaker potency. For B1, the IC50 came out at 32 nM in test [1] and 282 nM in test [2].

B2: NH2-Glu-BBN(7-14)-c(RGDyK) (BBN-RGD) (peptide)
peptide 1: RGDYK
peptide 2: EQWAVGHLM
modifications: free amino group on Glu; Aca between Glu and Gln; C-terminal amide (Met-NH2); cyclic (cyclo); D-Tyr at position 4; Lys joined to one carboxylate of the Glu linker
notes: also called heterodimer BBN-RGD; BBN-RGD heterodimeric construct
Turning to B2, the IC50 in test [1] stood at 35.7 nM; in test [2], 428 nM.

B3: RGD-BBN, cyclo(Arg-Gly-Asp-D-Tyr-Lys)-Glu-(Aca-Gln-Trp-Ala-Val-Gly-His-Leu-Met-NH2) (peptide)
peptide 1: RGDYK
peptide 2: EQWAVGHLM
modifications: free amino group on Glu; Glu side-chain carboxylate joined to Aca; Aca between Glu and Gln; C-terminal amide (Met-NH2); cyclic (cyclo); D-Tyr at position 4; Lys side chain ε-amine joined to the α-carboxylate of Glu
notes: also called Glu-RGD-BBN; RGD-bombesin
Turning to B3, the IC50 in test [3] is 17.9 nM; in test [4], 67.9 nM.

B4: NOTA-RGD-BBN (VII) (peptide)
peptide 1: RGDYK
peptide 2: EQWAVGHLM
modifications: NOTA (from p-SCN-Bn-NOTA, SCN-amine reaction) on the amine of RGD-BBN; Aca between Glu and Gln; C-terminal amide (Met-NH2); cyclic (cyclo); D-Tyr at position 4; Lys side chain joined to the Glu …
notes: also called NOTA-RGD-bombesin; ^64Cu-NOTA-RGD-BBN
With B4, the IC50 in test [5] came to 92.8 nM; in test [4], 55.9 nM.

B5: PEG3-Glu-RGD-BBN (peptide)
peptide 1: RGDYK
peptide 2: EQWAVGHLM
modifications: not fully specified; PEG3 (11-amino-3,6,9-trioxaundecanoic acid) on the Glu amino group; Glu γ-carboxylate joined to Aca; Aca between Glu and Gln; C-terminal amide (Met-NH2); cyclic (cyclo); D-Tyr at position 4; Lys side chain ε-amine joined to the α-carboxylate of Glu
notes: also called PEG3-RGD-BBN
In test [4], B5 displayed an IC50 of 85.5 nM.

B6: DOTA-RGD-BBN (VIII) (peptide)
peptide 1: RGDYK
peptide 2: EQWAVGHLM
modifications: not fully specified; DOTA (from DOTA-OSSu) on the amine of RGD-bombesin; Aca between Glu and Gln; C-terminal amide (Met-NH2); cyclic (cyclo); D-Tyr at position 4; Lys side chain joined to the Glu linker
notes: also called DOTA-RGD-bombesin; ^64Cu-DOTA-RGD-BBN
B6: the figures for the IC50 in test [6] and in test [7] were 85.8 nM and 21.6 nM, respectively.

Take Aca-QWAVGHLM-NH2 (also called BBN monomer; cold BBN) [Aca-BBN(7-14), Aca-Gln-Trp-Ala-Val-Gly-His-Leu-Met-NH2]: the binding result in test [3] is reported as “no binding”.

B7: FB-PEG3-Glu-RGD-BBN (peptide)
peptide 1: RGDYK
peptide 2: EQWAVGHLM
modifications: 4-fluorobenzoyl (FB) on the amino group of the PEG3 spacer (11-amino-3,6,9-trioxaundecanoic acid), PEG3 on the Glu amino group; Glu γ-carboxylate joined to Aca; Aca between Glu and Gln; C-terminal amide (Met-NH2); cyclic (cyclo); D-Tyr at position 4; Lys side chain ε-amine joined to the α-carboxylate of Glu
notes: also called FB-PEG3-RGD-BBN; ^18F-FB-PEG3-Glu-RGD-BBN
On to B7, for which the IC50 in test [8] was 73.3 nM.
